Experiment [1] deals with DENV-2 EDIII wild-type Fc-fusion antigen (Dengue virus type 2, strain 16681, UniProt P29990). As to the kind of experiment: ELISA. As to conditions: both partners purified. For orientation: ELISA stands for enzyme-linked immunosorbent assay.
For experiment [2], the target named is deglycosylated EDIII WT Fc-fusion antigen (Dengue virus type 2, strain 16681, UniProt P29990). Description: ELISA. Particulars: both partners purified.

B1: 513 engineered and humanized antibody (antibody, V domains shown)
VH: QVQLVQSGAEVKKPGASVKVSCKAGFNIKDVYMSWVRQAPEQGLEWMGRIDPENGDTKYDPKLQGRVTMTADTSTNTAYMELRSLRSDDTAVYYCARGWEGFAYWGQGTLVTVSS
VL: DIVMTQSPASLAVSLGQRATISCRASENVDKYGNSFMHWYQQKPGQPPKLLIYRASELQWGVPDRFSGSGSGTDFTLTISSLQAEDVAVYYCQRSNEVPWTFGQGTKLEIK
For B1, the binding result in experiment [1] is given as “binds”.

B2: 2C8 mouse antibody (antibody, V domains shown)
VH: EVKLVESGGGLVQPGGSLSLSCAASGFTFTDYYMTWVRQPPGKALEWLALIRNKASGYTTEYSASVKGRFTISRDNSQSILYLQMNALRAEDSATYYCTRAKWDGHYFDYWGQGTTLTVSS
VL: DIQMTQSPASLSVSVGETVTITCRATKNIYNNLAWYQQKQGRSPQLLVYAATNLADGVPSRFSGSGSGTQFSLRINSLQSEDFGNYYCQHFWHTPWTFGGGTKLEIK
notes: Mouse IgG2a; source: hybridoma culture supernatant, purified (HiTrap protein-G HP)
Take B2: in experiment [1], the binding result is “binds”.

B3: 3H5 mouse antibody (antibody, V domains shown)
VH: QVQLQQSGAEVARPGASVKLSCKASGYTFTSYWLQWVKQRPGQGLEWIGAIWPGDDDTRYAQKFQGKATMTADKSSSTAYIQLSNLASEDSAVYYCARKGGFAMDYWGQGTSVTVSS
VL: NIVMTQSPTSLAVSLGQRATISCRASESVDSFGKSFMHFYQQKPGQPPKLLIHLASNLESGVPARFTGRGSRTDFTLTIDPVEADDAATYYCQQNNEVPFTFGSGTKLEVK
B3: the binding result in experiment [2] and in experiment [1] was “binds” each time.

Source of the values: article PMC11320570 (ACS Infectious Diseases, 2024).
